Where no end group is shown, it is not given here. [ ]: non-standard residue; d: D form.

For the assay, the target named is T1, amyloid beta peptide (Homo sapiens, UniProt P05067).
T1 construct: tested for the recognition of both the D3 peptide and the amyloid beta peptide in a standard ELISA
Nature of the assay: Immunization of mice with D-peptides. The assay is classed as in vivo. The conditions noted are these: D3 covalently bonded to KLH, booster injections. As to the method: Mice were immunized with D-peptides. Use was made of the D3 peptide and also a retro-inverse peptide of the amyloid beta peptide (riAbeta1-16; retro-inverso-Abeta(1-16)). After multiple booster injections (booster effect), fusion to generate monoclonal antibodies was carried out according to standard methods. It was possible to isolate monoclonal antibodies which bind to D3, riAbetal-16, and to the amyloid beta peptide. The immunization with the mentioned D-peptides thus leads to a protective immune response against the amyloid beta peptide. D3 was covalently bonded (crosslinking) to KLH (keyhole limpet hemocyanin) and immunized mice with standard procedures. These were then fused with mouse myeloma cells according to standard protocols. The cell culture supernatant of the resulting hybridoma cells were then tested for the recognition of both the D3 peptide and the amyloid beta peptide in a standard ELISA.

T1 sequence (P05067 672-713 limits assumed): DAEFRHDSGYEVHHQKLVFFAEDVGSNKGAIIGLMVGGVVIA

For the substance “rprtr lhthr nr ([dR][dP][dR][dT][dR][dL][dH][dT][dH][dR][dN][dR]; also: conjugated to KLH) [D3, D-peptide used as immunogen, covalently bonded to KLH]”, the “antibody response against the amyloid beta peptide after immunization” value is reported as “results in an antibody response against the amyloid beta peptide”.

Source of the values: US9051364B2, “Composition for producing anti-amyloid beta peptide antibodies with D-peptides” (FORSCHUNGSZENTRUM JUELICH GMBH, priority 2008, dated 2015).
